Where no end group is shown, it is not given here.
B1: Phage-1198 (peptide)
peptide: YCEGHDVQYMQKCL
modifications: cysteine pairing not given here; also: displayed on phage by fusion to pIII, linker and pIII sequence not given here
B2: Phage-1205 (peptide)
peptide: YCDGHDARYMTKCL
modifications: cysteine pairing not given here; also: displayed on phage by fusion to pIII, linker and pIII sequence not given here
B3: Phage-1200 (peptide)
peptide: YCDGHLPRYMEKCM
modifications: cysteine pairing not given here; also: displayed on phage by fusion to pIII, linker and pIII sequence not given here
B4: Phage-1204 (peptide)
peptide: YCEGHAPQYMSKCL
modifications: cysteine pairing not given here; also: displayed on phage by fusion to pIII, linker and pIII sequence not given here
B5: Phage-1201 (peptide)
peptide: YCDGHSSAYIDKCL
modifications: cysteine pairing not given here; also: displayed on phage by fusion to pIII, linker and pIII sequence not given here
B6: Phage-1195 (peptide)
peptide: YCEGHIPAYMAKCL
modifications: cysteine pairing not given here; also: displayed on phage by fusion to pIII, linker and pIII sequence not given here
B7: Phage-1196 (peptide)
peptide: YCDGHAPIYMQKCL
modifications: cysteine pairing not given here; also: displayed on phage by fusion to pIII, linker and pIII sequence not given here
B8: Phage-1206 (peptide)
peptide: YCEGHSVEYILKCL
modifications: cysteine pairing not given here; also: displayed on phage by fusion to pIII, linker and pIII sequence not given here
B9: Phage-1199 (peptide)
peptide: YCEGHSSEYLGKCL
modifications: cysteine pairing not given here; also: displayed on phage by fusion to pIII, linker and pIII sequence not given here
B10: Phage-1202 (peptide)
peptide: YCEGHLPSYLAKCL
modifications: cysteine pairing not given here; also: displayed on phage by fusion to pIII, linker and pIII sequence not given here
B11: Phage-1203 (peptide)
peptide: YCDGHAPEFIRKCL
modifications: cysteine pairing not given here; also: displayed on phage by fusion to pIII, linker and pIII sequence not given here
B12: Phage-1197 (peptide)
peptide: YCEGHLWEYMKKCL
modifications: cysteine pairing not given here; also: displayed on phage by fusion to pIII, linker and pIII sequence not given here
B13: Phage-1207 (peptide)
peptide: YCEGHSSAYMRKCL
modifications: cysteine pairing not given here; also: displayed on phage by fusion to pIII, linker and pIII sequence not given here

Assays:
[1] = target: T1, Anti-CD28 Fab (SEQ ID NOs: 696, 697); assay: clonal phage ELISA; biotinylated anti-CD28 Fab on neutravidin plate, bound phage detected with anti-M13 HRP
T1 construct: Biotinylated and captured on neutravidin coated plates in the phage ELISA
T1 sequence (VH, as listed by the source, chain 1 of 2): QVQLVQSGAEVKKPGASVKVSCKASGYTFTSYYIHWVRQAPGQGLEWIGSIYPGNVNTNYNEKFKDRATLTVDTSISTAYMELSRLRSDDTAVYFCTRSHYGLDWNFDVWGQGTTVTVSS
T1 sequence (VL, as listed by the source, chain 2 of 2): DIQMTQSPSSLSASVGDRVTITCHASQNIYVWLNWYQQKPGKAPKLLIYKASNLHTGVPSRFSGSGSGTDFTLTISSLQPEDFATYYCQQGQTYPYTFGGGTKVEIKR
Description: (§1) After panning, phage infected bacteria were plated out and colonies picked into 96 well blocks. Clonal phage was then amplified and separated from bacterial cells via centrifugation.
(§2) Clonal phage were harvested as crude supematants and screened via standard ELISAs. […] Prior to the addition of clonal phage, wells were incubated with blocking buffer and CD28 antigen or blocking buffer alone. Without washing or aspirating, clonal phage supematants were then added to the wells and incubated for a short time. Wells were then washed followed by detection of bound phage using a horse radish conjugated anti-M13 antibody. Clonal phage of interest were then sent for sequence analysis.

[2] = target: T1, Anti-CD28 Fab (SEQ ID NOs: 696, 697); assay: clonal phage ELISA on captured anti-CD28 Fab; wells pre-incubated with CD28 antigen as competitor
Description: as §1, §2

[3] = target: T2, Anti-CD28 Fab (SEQ ID NOs: 696, 697); assay: phage ELISA; biotinylated anti-CD28 Fab on neutravidin plate, clonal phage supernatant, anti-M13 HRP
T2 construct: In the phage ELISA the Fab was biotinylated and captured on neutravidin coated plates
T2 sequence (VH, as listed by the source, chain 1 of 2): as the sequence (VH, as listed by the source, chain 1 of 2) above
T2 sequence (VL, as listed by the source, chain 2 of 2): as the sequence (VL, as listed by the source, chain 2 of 2) above

[4] = target: T2, Anti-CD28 Fab (SEQ ID NOs: 696, 697); assay: phage ELISA; captured anti-CD28 Fab pre-incubated with CD28 antigen as competitor, anti-M13 HRP;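 note: crude clonal phage supernatants added without washing after CD28 pre-incubation, bound phage detected with HRP anti-M13 antibody, reference wells got blocking buffer lacking CD28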

Binder | Phage binding ELISA, Anti-CD28 Fab signal [1] | Phage binding ELISA, Anti-CD28 Fab signal in the presence of CD28 [2] | Anti-CD28 Fab signal (phage binding ELISA) [3] | Anti-CD28 Fab signal in the presence of CD28 (phage binding ELISA) [4]
YCDGHTKEYMWKCL [Phage-1185] | 1.1 | 0.06 |  | 
B1 |  |  | 1.06 | 0.08
B2 |  |  | 1.04 | 0.09
YCEGHAQEYMAKCL [Phage-1193] | 1.06 | 0.08 |  | 
YCEGHSAEYIGKCL [Phage-1187] | 1.08 | 0.07 |  | 
B3 |  |  | 1.05 | 0.06
B4 |  |  | 1.04 | 0.08
YCEGHLWEYLAKCL [Phage-1183] | 1.1 | 0.05 |  | 
B5 |  |  | 1.05 | 0.06
B6 |  |  | 1.06 | 0.08
YCEGHIPMYMLKCM [Phage-1192] | 1.06 | 0.09 |  | 
B7 |  |  | 1.06 | 0.06
B8 |  |  | 1.04 | 0.06
YCDGHANAYIWKCL [Phage-1191] | 1.07 | 0.09 |  | 
B9 |  |  | 1.05 | 0.09
YCAGHAEEYMLKCL [Phage-1186] | 1.09 | 0.07 |  | 
YCDGHAKVYIWKCL [Phage-1194] | 1.06 | 0.08 |  | 
B10 |  |  | 1.05 | 0.06
YCDGHSFHYMAKCL [Phage-1189] | 1.08 | 0.06 |  | 
B11 |  |  | 1.05 | 0.07
YCVGHLPEYMLECM [Phage-1188] | 1.08 | 0.07 |  | 
B12 |  |  | 1.06 | 0.07
B13 |  |  | 1.04 | 0.06
YCEGHMGEYMLKCL [Phage-1184] | 1.1 | 0.06 |  | 
YCEGHSEMYMSKCL [Phage-1190] | 1.07 | 0.09 |  | 

Reference: patent US20260242478A1 (published 2026)
